{"source": "patent US20250313611A1", "about": "(VIB VZW, published 2025)", "binders": {"B1": {"name": "VHH R3_C4 (VHH)", "VHH": "QVQLQESGGGLVQAGDSLRLSCAVSGRPFSTYTMGWFRQAPGKEREFVAAMRWSGGTIYYADSVKGRFTISRDNDKNTVNLEMNSLKPEDTAVYYCAAAYVSKANYGSLWYRASGLYDYWGQGTQVTVSS"}, "B2": {"name": "VHH R3_DC2 (VHH)", "VHH": "B1 VHH with A14T, A50S, I58K, A61S, T69S, K76Q, E82Q, A113N"}, "B3": {"name": "VHH R3_DC9 (VHH)", "VHH": "B1 VHH with A14T, A50S, I58M, A61S, E82Q, A113N"}, "B4": {"name": "VHH R3_DC20 (VHH)", "VHH": "B1 VHH with D75A, K76Q, E82Q, K87E, A113N"}, "B5": {"name": "VHH R4_DC9 (VHH)", "VHH": "QVQLQESGGGLVQAGDSLRLSCAASGRIFSTYTMGWFRQAPGMEREFVAAIRWSGSTVYYADSVKGRFTISRDNAKNTVYLQMNSLKPEDTAVYYCAAARVSKANYGTLWYRASGLYDYWGQGTQVTVSS"}, "B6": {"name": "VHH R4_DC13 (VHH)", "VHH": "B1 VHH with A14T, A50S, I58V, A61S, E82Q, S85N, L109F, A113N, G115D"}, "B7": {"name": "VHH R4_DC20 (VHH)", "VHH": "B1 VHH with A14T, A50S, I58M, Y59N, K76Q, E82Q, A113N"}, "B8": {"name": "VHH R3_DC23 (VHH)", "VHH": "QVQLQESGGGLVQAGDSLTLSCAVSGRIFSTYTMGWFRQAPGKEREFVAAVRWGAGTIYYADSMKGRFTISRDSAKNTVDLQMNSTKPEDTAVYYCGAAYVSKANYGSLWYQDSRRYDYWGQGTQVTVSS"}, "B9": {"name": "R3_DC23-Fc(YTE) (Fc fusion)", "chain": "DVQLVESGGGLVQPGGSLRLSCAVSGRIFSTYTMGWFRQAPGKEREFVAAVRWGAGTIYYADSVKGRFTISRDNAKNTVYLQMNSLRPEDTAVYYCGAAYVSKANYGSLWYQDSRRYDYWGQGTLVTVSSGGGGSGGGGSDKTHTCPPCPAPELLGGPSVFLFPPKPKDTLYITREPEVTCVVVDVSHEDPEVKFNWYVDGVEVHNAKTKPREEQYNSTYRVVSVLTVLHQDWLNGKEYKCKVSNKALPAPIEKTISKAKGQPREPQVYTLPPSRDELTKNQVSLTCLVKGFYPSDIAVEWESNGQPENNYKTTPPVLDSDGSFFLYSKLTVDKSRWQQGNVFSCSVMHEALHNHYTQKSLSLSPG"}, "B10": {"name": "VHH R4_DC6 (VHH)", "VHH": "QVQLQESGGGLVQAGDSLRLSCAASGRILSTFTMGWFRQAPGKEREFVAAMRWNGGTKNYADSVKGRFTISRDNANSVVYLQMNSTKPEDTAVYYCAAAYVSKANYGSLWYRTPSLYDYWGQGTQVTVSS"}, "B11": {"name": "VHH R4_DC16 (VHH)", "VHH": "B1 VHH with D75A, K76Q, E82Q, L109S, A113N"}}, "key": {"[1]": {"biological_target": "T1, SARS-COV-2 spike (614G-del18) (SARS-CoV-2, UniProt P0DTC2 14-1255)", "assay": "flow cytometry, transfected HEK cells, MFI GFP+/GFP- cells [1/3]"}, "[2]": {"biological_target": "T1, SARS-COV-2 spike (614G-del18)", "assay": "cell-based or functional assay"}, "[3]": {"biological_target": "T1, SARS-COV-2 spike (614G-del18)", "assay": "flow cytometry, transfected HEK cells, MFI GFP+/GFP- cells [2/3]"}, "[4]": {"biological_target": "T1, SARS-COV-2 spike (614G-del18)", "assay": "flow cytometry, transfected HEK cells, MFI GFP+/GFP- cells [3/3]"}, "[5]": {"biological_target": "T1, SARS-COV-2 spike (614G-del18)"}, "[6]": {"biological_target": "SARS-COV-2 spike protein (Wuhan) expressed on transfected cells (SARS-CoV-2 (Wuhan), UniProt P0DTC2 14-1273)"}, "[7]": {"biological_target": "SARS-COV-2 Omicron BA.2.75 spike (pCG1, del18) (SARS-CoV-2 Omicron BA.2.75, UniProt P0DTC2 14-1255)", "assay": "cell-based or functional assay"}, "[8]": {"biological_target": "SARS-COV-2 Omicron XBB spike (pCG1, del18) (SARS-CoV-2 Omicron XBB, UniProt P0DTC2 14-1255)", "assay": "cell-based or functional assay"}, "[9]": {"biological_target": "SARS-COV-2 Omicron BA.4.6 spike (pCG1, del18) (SARS-CoV-2 Omicron BA.4.6, UniProt P0DTC2 14-1255)", "assay": "cell-based or functional assay"}, "[10]": {"biological_target": "SARS-COV-2 Omicron BA.2 spike (pCG1, del18) (SARS-CoV-2 Omicron BA.2, UniProt P0DTC2 14-1255)", "assay": "cell-based or functional assay"}, "[11]": {"biological_target": "SARS-COV-2 Omicron BQ.1.1 spike (pCG1, del18) (SARS-CoV-2 Omicron BQ.1.1, UniProt P0DTC2 14-1255)", "assay": "cell-based or functional assay"}, "[12]": {"biological_target": "SARS-COV-2 Omicron BA.1 spike (pCG1, del18) (SARS-CoV-2 Omicron BA.1, UniProt P0DTC2 14-1255)", "assay": "cell-based or functional assay"}, "[13]": {"biological_target": "T1, SARS-COV-2 spike (614G-del18)", "remark": "listed apart in the source"}}, "note": "Residue numbers refer to the chain shown, from its start. Where “and” joins values, the source holds several entries; their conditions need not be identical. Identical values can stand only once. Like-named read-outs stand apart in the source and are kept apart here.", "data": [{"binder": "B1", "values": [{"measurement": "binding result", "setting": "[1]", "result": "binds"}]}, {"binder": "B2", "values": [{"measurement": "binding result", "setting": "[1]", "result": "binds"}]}, {"binder": "B3", "values": [{"measurement": "binding result", "setting": "[1]", "result": "binds"}]}, {"binder": "B4", "values": [{"measurement": "binding result", "setting": "[1]", "result": "binds"}]}, {"binder": "B5", "values": [{"measurement": "IC50, neutralisation of VSV pseudotyped with spike, Vero E6 cells", "setting": "[2]", "result": "~100", "unit": "ng/mL"}, {"measurement": "IC50, neutralisation of VSV spike pseudotypes", "setting": "[2]", "result": "68.9 ng/ml and 4680 µM"}]}, {"binder": "B6", "values": [{"measurement": "binding result", "setting": "[3]", "result": "binds"}]}, {"binder": "B7", "values": [{"measurement": "binding result", "setting": "[4]", "result": "binds"}]}, {"binder": "B8", "values": [{"measurement": "IC50, neutralisation of VSV pseudotyped with spike, Vero E6 cells", "setting": "[2]", "result": "< 1", "unit": "ng/mL"}, {"measurement": "IC50, neutralisation of VSV spike pseudotypes", "setting": "[2]", "result": "1.2 ng/ml and 80 µM and ~1 ng/ml"}, {"measurement": "EC50 (read off the curve)", "setting": "[5]", "result": "~10", "unit": "ng/mL"}, {"measurement": "EC50 (read off the curve)", "setting": "[6]", "result": "~10", "unit": "ng/mL"}]}, {"binder": "B9", "values": [{"measurement": "IC50, neutralisation of VSV pseudotyped with spike", "setting": "[7]", "result": "~1", "unit": "ng/mL"}, {"measurement": "IC50, neutralisation of VSV pseudotyped with spike", "setting": "[8]", "result": "~1", "unit": "ng/mL"}, {"measurement": "IC50, neutralisation of VSV pseudotyped with spike", "setting": "[9]", "result": "~1", "unit": "ng/mL"}, {"measurement": "EC50, neutralisation of VSV pseudotyped with spike", "setting": "[10]", "result": 0.35, "unit": "ng/mL"}, {"measurement": "IC50, neutralisation of VSV pseudotyped with spike", "setting": "[10]", "result": "~1", "unit": "ng/mL"}, {"measurement": "IC50, neutralisation of VSV pseudotyped with spike", "setting": "[11]", "result": "~1", "unit": "ng/mL"}, {"measurement": "EC50, neutralisation of VSV pseudotyped with spike", "setting": "[2]", "result": 1, "unit": "ng/mL"}, {"measurement": "EC50, neutralisation of VSV pseudotyped with spike", "setting": "[12]", "result": 1, "unit": "ng/mL"}, {"measurement": "IC50, neutralisation of VSV pseudotyped with spike", "setting": "[12]", "result": "~1", "unit": "ng/mL"}, {"measurement": "EC50 (read off the curve)", "setting": "[13]", "result": "~100", "unit": "ng/mL"}]}, {"binder": "B10", "values": [{"measurement": "EC50 (read off the curve)", "setting": "[5]", "result": "~2", "unit": "ng/mL"}]}, {"binder": "B11", "values": [{"measurement": "binding result", "setting": "[4]", "result": "binds"}]}]}
